In publication PMC7545097, “Mapping the native interaction surfaces of PREP1 with PBX1 by cross-linking mass-spectrometry and mutagenesis” (Scientific Reports, 2020):

B1: N-terminal GST-fused wild-type PREP1 [not stated] / PBX1_(1-430), wild-type recombinant [human] (parent complex)
chain 1: MMATQTLSIDSYQDGQQMQVVTELKTEQDPNCSEPDAEGVSPPPVESQTPMDVDKQAIYRHPLFPLLALLFEKCEQSTQGSEGTTSASFDVDIENFVRKQEKEGKPFFCEDPETDNLMVKAIQVLRIHLLELEKVNELCKDFCSRYIACLKTKMNSETLLSGEPGSPYSPVQSQQIQSAITGTISPQGIVVPASALQQGNVAMATVAGGTVYQPVTVVTPQGQVVTQTLSPGTIRIQNSQLQLQLNQDLSILHQDDGSSKNKRGVLPKHATNVMRSWLFQHIGHPYPTEDEKKQIAAQTNLTLLQVNNWFINARRRILQPMLDSSCSETPKTKKKTAQNRPVQRFWPDSIASGVAQPPPSELTMSEGAVVTITTPVNMNVDSLQSLSSDGATLAVQQVMMAGQSEDESVDSTEEDAGALAPAHISGLVLENSDSLQ
chain 2: MDEQPRLMHSHAGVGMAGHPGLSQHLQDGAGGTEGEGGRKQDIGDILQQIMTITDQSLDEAQARKHALNCHRMKPALFNVLCEIKEKTVLSIRGAQEEEPTDPQLMRLDNMLLAEGVAGPEKGGGSAAAAAAAAASGGAGSDNSVEHSDYRAKLSQIRQIYHTELEKYEQACNEFTTHVMNLLREQSRTRPISPKEIERMVSIIHRKFSSIQMQLKQSTCEAVMILRSRFLDARRKRRNFNKQATEILNEYFYSHLSNPYPSEEAKEELAKKCGITVSQVSNWFGNKRIRYKKNIGKFQEEANIYAAKTAVTATNVSAHGSQANSPSTPNSAGSSSSFNMSNSGDLFMSVQSLNGDSYQGAQVGANVQSQVDTLRHVISQTGGYSDGLAASQMYSPQGISANGGWQDATTPSSVTSPTEGPGSVHSDTSN

Variants of: B1
Assay: TR-FIA; parent: 1; read off a plot

Row | Variant | ratio to parent
1 | chain 1 MMATQTLSIDSYQDGQQMQVVTELKTEQDPNCSEPDAEGVSPPPVESQTPMDVDKQAIYRHPLFPLLAALFEKCEQSTQGSEGTTSASFDVDIENFVRKQEKEGKPFFCEDPETDNLMVKAIQVLRIHLLELEKVNELCKDFCSRYIACLKTKMNSETLLSGEPGSPYSPVQSQQIQSAITGTISPQGIVVPASALQQGNVAMATVAGGTVYQPVTVVTPQGQVVTQTLSPGTIRIQNSQLQLQLNQDLSILHQDDGSSKNKRGVLPKHATNVMRSWLFQHIGHPYPTEDEKKQIAAQTNLTLLQVNNWFINARRRILQPMLDSSCSETPKTKKKTAQNRPVQRFWPDSIASGVAQPPPSELTMSEGAVVTITTPVNMNVDSLQSLSSDGATLAVQQVMMAGQSEDESVDSTEEDAGALAPAHISGLVLENSDSLQ [chain 1 L69A] | ~1.1
2 | chain 1 MMATQTLSIDSYQDGQQMQVVTELKTEQDPNCSEPDAEGVSPPPVESQTPMDVDKQAIYRHPLFPLLALLFEKCEQSTQGSEGTTSASFDVDIENFVRKQEKEGKPFFCEDPETDNLMVKAIQVARIHLLELEKVNELCKDFCSRYIACLKTKMNSETLLSGEPGSPYSPVQSQQIQSAITGTISPQGIVVPASALQQGNVAMATVAGGTVYQPVTVVTPQGQVVTQTLSPGTIRIQNSQLQLQLNQDLSILHQDDGSSKNKRGVLPKHATNVMRSWLFQHIGHPYPTEDEKKQIAAQTNLTLLQVNNWFINARRRILQPMLDSSCSETPKTKKKTAQNRPVQRFWPDSIASGVAQPPPSELTMSEGAVVTITTPVNMNVDSLQSLSSDGATLAVQQVMMAGQSEDESVDSTEEDAGALAPAHISGLVLENSDSLQ [chain 1 L125A] | ~0.63
3 | chain 1 MMATQTLSIDSYQDGQQMQVVTELKTEQDPNCSEPDAEGVSPPPVESQTPMDVDKQAIYRHPLFPALALLFEKCEQSTQGSEGTTSASFDVDIENFVRKQEKEGKPFFCEDPETDNLMVKAIQVLRIHLLELEKVNELCKDFCSRYIACLKTKMNSETLLSGEPGSPYSPVQSQQIQSAITGTISPQGIVVPASALQQGNVAMATVAGGTVYQPVTVVTPQGQVVTQTLSPGTIRIQNSQLQLQLNQDLSILHQDDGSSKNKRGVLPKHATNVMRSWLFQHIGHPYPTEDEKKQIAAQTNLTLLQVNNWFINARRRILQPMLDSSCSETPKTKKKTAQNRPVQRFWPDSIASGVAQPPPSELTMSEGAVVTITTPVNMNVDSLQSLSSDGATLAVQQVMMAGQSEDESVDSTEEDAGALAPAHISGLVLENSDSLQ [chain 1 L66A] | ~0.59
4 | chain 1 MMATQTLSIDSYQDGQQMQVVTELKTEQDPNCSEPDAEGVSPPPVESQTPMDVDKQAIYRHPLFPLLALAFEKCEQSTQGSEGTTSASFDVDIENFVRKQEKEGKPFFCEDPETDNLMVKAIQVLRIHLLELEKVNELCKDFCSRYIACLKTKMNSETLLSGEPGSPYSPVQSQQIQSAITGTISPQGIVVPASALQQGNVAMATVAGGTVYQPVTVVTPQGQVVTQTLSPGTIRIQNSQLQLQLNQDLSILHQDDGSSKNKRGVLPKHATNVMRSWLFQHIGHPYPTEDEKKQIAAQTNLTLLQVNNWFINARRRILQPMLDSSCSETPKTKKKTAQNRPVQRFWPDSIASGVAQPPPSELTMSEGAVVTITTPVNMNVDSLQSLSSDGATLAVQQVMMAGQSEDESVDSTEEDAGALAPAHISGLVLENSDSLQ [chain 1 L70A] | ~0.53
5 | chain 1 MMATQTLSIDSYQDGQQMQVVTELKTEQDPNCSEPDAEGVSPPPVESQTPMDVDKQAIYRHPLFPLLALLFEKCEQSTQGSEGTTSASFDVDIENFVRKQEKEGKPFFCEDPETDNLMVKAAQVLRIHLLELEKVNELCKDFCSRYIACLKTKMNSETLLSGEPGSPYSPVQSQQIQSAITGTISPQGIVVPASALQQGNVAMATVAGGTVYQPVTVVTPQGQVVTQTLSPGTIRIQNSQLQLQLNQDLSILHQDDGSSKNKRGVLPKHATNVMRSWLFQHIGHPYPTEDEKKQIAAQTNLTLLQVNNWFINARRRILQPMLDSSCSETPKTKKKTAQNRPVQRFWPDSIASGVAQPPPSELTMSEGAVVTITTPVNMNVDSLQSLSSDGATLAVQQVMMAGQSEDESVDSTEEDAGALAPAHISGLVLENSDSLQ [chain 1 I122A] | ~0.79
6 | chain 1 MMATQTLSIDSYQDGQQMQVVTELKTEQDPNCSEPDAEGVSPPPVESQTPMDVDKQAIYRHPLFPLLALLFEKCEQSTQGSEGTTSASFDVDIENFVRKQEKEGKPFFCEDPETDNAMVKAIQVLRIHLLELEKVNELCKDFCSRYIACLKTKMNSETLLSGEPGSPYSPVQSQQIQSAITGTISPQGIVVPASALQQGNVAMATVAGGTVYQPVTVVTPQGQVVTQTLSPGTIRIQNSQLQLQLNQDLSILHQDDGSSKNKRGVLPKHATNVMRSWLFQHIGHPYPTEDEKKQIAAQTNLTLLQVNNWFINARRRILQPMLDSSCSETPKTKKKTAQNRPVQRFWPDSIASGVAQPPPSELTMSEGAVVTITTPVNMNVDSLQSLSSDGATLAVQQVMMAGQSEDESVDSTEEDAGALAPAHISGLVLENSDSLQ [chain 1 L117A] | ~0.48
7 | chain 1 MMATQTLSIDSYQDGQQMQVVTELKTEQDPNCSEPDAEGVSPPPVESQTPMDVDKQAIYRHPLFPLAALLFEKCEQSTQGSEGTTSASFDVDIENFVRKQEKEGKPFFCEDPETDNLMVKAIQVLRIHLLELEKVNELCKDFCSRYIACLKTKMNSETLLSGEPGSPYSPVQSQQIQSAITGTISPQGIVVPASALQQGNVAMATVAGGTVYQPVTVVTPQGQVVTQTLSPGTIRIQNSQLQLQLNQDLSILHQDDGSSKNKRGVLPKHATNVMRSWLFQHIGHPYPTEDEKKQIAAQTNLTLLQVNNWFINARRRILQPMLDSSCSETPKTKKKTAQNRPVQRFWPDSIASGVAQPPPSELTMSEGAVVTITTPVNMNVDSLQSLSSDGATLAVQQVMMAGQSEDESVDSTEEDAGALAPAHISGLVLENSDSLQ [chain 1 L67A] | ~0.65

Next, values leading:

Row | ratio to parent | Variant
8 | ~1 | chain 1 MMATQTLSIDSYQDGQQMQVVTELKTEQDPNCSEPDAEGVSPPPVESQTPMDVDKQAIYRHPLFPLLALLFEKCEQSTQGSEGTTSASFDVDIENFVRKQEKEGKPFFCEDPETDNLMVKAIQVLRIHLLELEKVNELCKDFCSRYIACLKTKMNSETLLSGEPGSPYSPVQSQQIQSAITGTISPQGIVVPASALQQGNVAMATVAGGTVYQPVTVVTPQGQVVTQTLSPGTIRIQNSQLQLQANQDLSILHQDDGSSKNKRGVLPKHATNVMRSWLFQHIGHPYPTEDEKKQIAAQTNLTLLQVNNWFINARRRILQPMLDSSCSETPKTKKKTAQNRPVQRFWPDSIASGVAQPPPSELTMSEGAVVTITTPVNMNVDSLQSLSSDGATLAVQQVMMAGQSEDESVDSTEEDAGALAPAHISGLVLENSDSLQ [chain 1 L245A]
9 | ~0.91 | chain 1 MMATQTLSIDSYQDGQQMQVVTELKTEQDPNCSEPDAEGVSPPPVESQTPMDVDKQAIYRHPLFPLLALLFEKCEQSTQGSEGTTSASFDVDIENFVRKQEKEGKPFFCEDPETDNLMVKAIQALRIHLLELEKVNELCKDFCSRYIACLKTKMNSETLLSGEPGSPYSPVQSQQIQSAITGTISPQGIVVPASALQQGNVAMATVAGGTVYQPVTVVTPQGQVVTQTLSPGTIRIQNSQLQLQLNQDLSILHQDDGSSKNKRGVLPKHATNVMRSWLFQHIGHPYPTEDEKKQIAAQTNLTLLQVNNWFINARRRILQPMLDSSCSETPKTKKKTAQNRPVQRFWPDSIASGVAQPPPSELTMSEGAVVTITTPVNMNVDSLQSLSSDGATLAVQQVMMAGQSEDESVDSTEEDAGALAPAHISGLVLENSDSLQ [chain 1 V124A]
10 | ~0.79 | chain 1 MMATQTLSIDSYQDGQQMQVVTELKTEQDPNCSEPDAEGVSPPPVESQTPMDVDKQAIYRHPLFPLLALLFEKCEQSTQGSEGTTSASFDVDIENFVRKQEKEGKPFFCEDPETDNLMVKAIQVLRIHLAELEKVNELCKDFCSRYIACLKTKMNSETLLSGEPGSPYSPVQSQQIQSAITGTISPQGIVVPASALQQGNVAMATVAGGTVYQPVTVVTPQGQVVTQTLSPGTIRIQNSQLQLQLNQDLSILHQDDGSSKNKRGVLPKHATNVMRSWLFQHIGHPYPTEDEKKQIAAQTNLTLLQVNNWFINARRRILQPMLDSSCSETPKTKKKTAQNRPVQRFWPDSIASGVAQPPPSELTMSEGAVVTITTPVNMNVDSLQSLSSDGATLAVQQVMMAGQSEDESVDSTEEDAGALAPAHISGLVLENSDSLQ [chain 1 L130A]
11 | ~0.96 | chain 1 MMATQTLSIDSYQDGQQMQVVTELKTEQDPNCSEPDAEGVSPPPVESQTPMDVDKQAIYRHPLFPLLALLFEKCEQSTQGSEGTTSASFDVDIENFVRKQEKEGKPFFCEDPETDNLMVKAIQVLRIHLLELEKVNELCKDFCSRYIACLKTKMNSETLLSGEPGSPYSPVQSQQIQSAITGTISPQGIVVPASALQQGNVAMATVAGGTVYQPVTVVTPQGQVVTQTLSPGTIRIQNSQLQLQLNQDASILHQDDGSSKNKRGVLPKHATNVMRSWLFQHIGHPYPTEDEKKQIAAQTNLTLLQVNNWFINARRRILQPMLDSSCSETPKTKKKTAQNRPVQRFWPDSIASGVAQPPPSELTMSEGAVVTITTPVNMNVDSLQSLSSDGATLAVQQVMMAGQSEDESVDSTEEDAGALAPAHISGLVLENSDSLQ [chain 1 L249A]
12 | ~0.95 | chain 1 MMATQTLSIDSYQDGQQMQVVTELKTEQDPNCSEPDAEGVSPPPVESQTPMDVDKQAIYRHPLFPLLALLFEKCEQSTQGSEGTTSASFDVDIENFVRKQEKEGKPFFCEDPETDNLMVKAIQVLRIHLLELEKVNELCKDFCSRYIACLKTKMNSETLLSGEPGSPYSPVQSQQIQSAITGTISPQGIVVPASALQQGNVAMATVAGGTVYQPVTVVTPQGQVVTQTLSPGTIRIQNSQLQLQLNQDLSIAHQDDGSSKNKRGVLPKHATNVMRSWLFQHIGHPYPTEDEKKQIAAQTNLTLLQVNNWFINARRRILQPMLDSSCSETPKTKKKTAQNRPVQRFWPDSIASGVAQPPPSELTMSEGAVVTITTPVNMNVDSLQSLSSDGATLAVQQVMMAGQSEDESVDSTEEDAGALAPAHISGLVLENSDSLQ [chain 1 L252A]
13 | ~0.43 | chain 1 MMATQTLSIDSYQDGQQMQVVTELKTEQDPNCSEPDAEGVSPPPVESQTPMDVDKQAIYRHPLFPLLALLFEKCEQSTQGSEGTTSASFDVDIENFVRKQEKEGKPFFCEDPETDNLMVKAIQVLRIHALELEKVNELCKDFCSRYIACLKTKMNSETLLSGEPGSPYSPVQSQQIQSAITGTISPQGIVVPASALQQGNVAMATVAGGTVYQPVTVVTPQGQVVTQTLSPGTIRIQNSQLQLQLNQDLSILHQDDGSSKNKRGVLPKHATNVMRSWLFQHIGHPYPTEDEKKQIAAQTNLTLLQVNNWFINARRRILQPMLDSSCSETPKTKKKTAQNRPVQRFWPDSIASGVAQPPPSELTMSEGAVVTITTPVNMNVDSLQSLSSDGATLAVQQVMMAGQSEDESVDSTEEDAGALAPAHISGLVLENSDSLQ [chain 1 L129A]
